Test results as given in PMC4860158 (Journal of neurochemistry, 2016).

Molecular target: the molecule itself
Test: SEC

B1: Gloeobacter violaceus ligand-gated ion channel (GLIC), wild type, pentameric assembly (natural protein, UniProt Q7NDN8 44-359, looked up)
chain: QDMVSPPPPIADEPLTVNTGIYLIECYSLDDKAETFKVNAFLSLSWKDRRLAFDPVRSGVRVKTYEPEAIWIPEIRFVNVENARDADVVDISVSPDGTVQYLERFSARVLSPLDFRRYPFDSQTLHIYLIVRSVDTRNIVLAVDLEKVGKNDDVFLTGWDIESFTAVVKPANFALEDRLESKLDYQLRISRQYFSYIPNIILPMLFILFISWTAFWSTSYEANVTLVVSTLIAHIAFNILVETNLPKTPYMTYTGAIIFMIYLFYFVAVIEVTVQHYLKVESQPARAASITRASRIAFPVVFLLANIILAFLFFGF
- stoichiometry N: 5
